The chains are these.
T1: human calcitonin receptor (human, UniProt P30988 25-474)
T1 construct: whole, on cells; also called hCT-R; hCTR
T1 sequence (looked up): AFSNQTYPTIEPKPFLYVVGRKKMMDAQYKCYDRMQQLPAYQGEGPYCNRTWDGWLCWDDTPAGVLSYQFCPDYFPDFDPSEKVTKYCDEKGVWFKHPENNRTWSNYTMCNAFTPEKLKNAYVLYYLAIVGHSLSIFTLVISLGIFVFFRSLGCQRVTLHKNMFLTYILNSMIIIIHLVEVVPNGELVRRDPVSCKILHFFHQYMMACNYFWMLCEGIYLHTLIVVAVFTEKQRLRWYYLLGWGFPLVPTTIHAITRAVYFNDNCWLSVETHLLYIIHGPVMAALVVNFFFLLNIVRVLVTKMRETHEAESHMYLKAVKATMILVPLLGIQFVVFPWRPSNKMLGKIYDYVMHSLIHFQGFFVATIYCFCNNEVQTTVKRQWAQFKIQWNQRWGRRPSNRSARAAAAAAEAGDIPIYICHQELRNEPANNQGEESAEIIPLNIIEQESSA

B1: [N-terminal(C18 diacid-gGlu), des1, 5V, 9V, 10V, 20V, 30S, 31G]mimylin (peptide)
peptide: {C18 diacid-γGlu}-ASEVSTAVVGRLSAELHEVATLPRTETGSGSP-NH2
SMILES: CC(C)C[C@H](NC(=O)[C@H](CCCNC(=N)N)NC(=O)CNC(=O)[C@@H](NC(=O)[C@@H](NC(=O)[C@H](C)NC(=O)[C@@H](NC(=O)[C@H](CO)NC(=O)[C@@H](NC(=O)[C@H](CCC(=O)O)NC(=O)[C@H](CO)NC(=O)[C@H](C)NC(=O)CC[C@H](NC(=O)CCCCCCCCCCCCCCCCC(=O)O)C(=O)O)C(C)C)[C@@H](C)O)C(C)C)C(C)C)C(=O)N[C@@H](CO)C(=O)N[C@@H](C)C(=O)N[C@@H](CCC(=O)O)C(=O)N[C@@H](CC(C)C)C(=O)N[C@@H](Cc1c[nH]cn1)C(=O)N[C@@H](CCC(=O)O)C(=O)N[C@H](C(=O)N[C@@H](C)C(=O)N[C@H](C(=O)N[C@@H](CC(C)C)C(=O)N1CCC[C@H]1C(=O)N[C@@H](CCCNC(=N)N)C(=O)N[C@H](C(=O)N[C@@H](CCC(=O)O)C(=O)N[C@H](C(=O)NCC(=O)N[C@@H](CO)C(=O)NCC(=O)N[C@@H](CO)C(=O)N1CCC[C@H]1C(N)=O)[C@@H](C)O)[C@@H](C)O)[C@@H](C)O)C(C)C
B2: [N-terminal(C18 diacid-gGlu), des1, 4Q, 16Q, 30S, 31G]mimylin (peptide)
peptide: {C18 diacid-γGlu}-ASQLSTAALGRLSAQLHELATLPRTETGSGSP-NH2
SMILES: CC(C)C[C@H](NC(=O)[C@H](C)NC(=O)[C@H](C)NC(=O)[C@@H](NC(=O)[C@H](CO)NC(=O)[C@H](CC(C)C)NC(=O)[C@H](CCC(N)=O)NC(=O)[C@H](CO)NC(=O)[C@H](C)NC(=O)CC[C@H](NC(=O)CCCCCCCCCCCCCCCCC(=O)O)C(=O)O)[C@@H](C)O)C(=O)NCC(=O)N[C@@H](CCCNC(=N)N)C(=O)N[C@@H](CC(C)C)C(=O)N[C@@H](CO)C(=O)N[C@@H](C)C(=O)N[C@@H](CCC(N)=O)C(=O)N[C@@H](CC(C)C)C(=O)N[C@@H](Cc1c[nH]cn1)C(=O)N[C@@H](CCC(=O)O)C(=O)N[C@@H](CC(C)C)C(=O)N[C@@H](C)C(=O)N[C@H](C(=O)N[C@@H](CC(C)C)C(=O)N1CCC[C@H]1C(=O)N[C@@H](CCCNC(=N)N)C(=O)N[C@H](C(=O)N[C@@H](CCC(=O)O)C(=O)N[C@H](C(=O)NCC(=O)N[C@@H](CO)C(=O)NCC(=O)N[C@@H](CO)C(=O)N1CCC[C@H]1C(N)=O)[C@@H](C)O)[C@@H](C)O)[C@@H](C)O
notes: also called Ex. #87
B3: [N-terminal(C18 diacid-gGlu), des1, 4Q, 30S, 31G]mimylin (peptide)
peptide: {C18 diacid-γGlu}-ASQLSTAALGRLSAELHELATLPRTETGSGSP-NH2
SMILES: CC(C)C[C@H](NC(=O)[C@H](C)NC(=O)[C@H](C)NC(=O)[C@@H](NC(=O)[C@H](CO)NC(=O)[C@H](CC(C)C)NC(=O)[C@H](CCC(N)=O)NC(=O)[C@H](CO)NC(=O)[C@H](C)NC(=O)CC[C@H](NC(=O)CCCCCCCCCCCCCCCCC(=O)O)C(=O)O)[C@@H](C)O)C(=O)NCC(=O)N[C@@H](CCCNC(=N)N)C(=O)N[C@@H](CC(C)C)C(=O)N[C@@H](CO)C(=O)N[C@@H](C)C(=O)N[C@@H](CCC(=O)O)C(=O)N[C@@H](CC(C)C)C(=O)N[C@@H](Cc1c[nH]cn1)C(=O)N[C@@H](CCC(=O)O)C(=O)N[C@@H](CC(C)C)C(=O)N[C@@H](C)C(=O)N[C@H](C(=O)N[C@@H](CC(C)C)C(=O)N1CCC[C@H]1C(=O)N[C@@H](CCCNC(=N)N)C(=O)N[C@H](C(=O)N[C@@H](CCC(=O)O)C(=O)N[C@H](C(=O)NCC(=O)N[C@@H](CO)C(=O)NCC(=O)N[C@@H](CO)C(=O)N1CCC[C@H]1C(N)=O)[C@@H](C)O)[C@@H](C)O)[C@@H](C)O
notes: also called Ex. #78
B4: [N-terminal(C18 diacid-gGlu), des1, 5V, 9V, 10V, 30S, 31G]mimylin (peptide)
peptide: {C18 diacid-γGlu}-ASEVSTAVVGRLSAELHELATLPRTETGSGSP-NH2
SMILES: CC(C)C[C@H](NC(=O)[C@H](CCC(=O)O)NC(=O)[C@H](Cc1c[nH]cn1)NC(=O)[C@H](CC(C)C)NC(=O)[C@H](CCC(=O)O)NC(=O)[C@H](C)NC(=O)[C@H](CO)NC(=O)[C@H](CC(C)C)NC(=O)[C@H](CCCNC(=N)N)NC(=O)CNC(=O)[C@@H](NC(=O)[C@@H](NC(=O)[C@H](C)NC(=O)[C@@H](NC(=O)[C@H](CO)NC(=O)[C@@H](NC(=O)[C@H](CCC(=O)O)NC(=O)[C@H](CO)NC(=O)[C@H](C)NC(=O)CC[C@H](NC(=O)CCCCCCCCCCCCCCCCC(=O)O)C(=O)O)C(C)C)[C@@H](C)O)C(C)C)C(C)C)C(=O)N[C@@H](C)C(=O)N[C@H](C(=O)N[C@@H](CC(C)C)C(=O)N1CCC[C@H]1C(=O)N[C@@H](CCCNC(=N)N)C(=O)N[C@H](C(=O)N[C@@H](CCC(=O)O)C(=O)N[C@H](C(=O)NCC(=O)N[C@@H](CO)C(=O)NCC(=O)N[C@@H](CO)C(=O)N1CCC[C@H]1C(N)=O)[C@@H](C)O)[C@@H](C)O)[C@@H](C)O
notes: also called Ex. #96
B5: [N-terminal(C18 diacid)]mimylin (peptide)
peptide: {C18 diacid}-EASELSTAALGRLSAELHELATLPRTETGPESP-NH2
SMILES: CC(C)C[C@H](NC(=O)[C@H](C)NC(=O)[C@H](C)NC(=O)[C@@H](NC(=O)[C@H](CO)NC(=O)[C@H](CC(C)C)NC(=O)[C@H](CCC(=O)O)NC(=O)[C@H](CO)NC(=O)[C@H](C)NC(=O)[C@H](CCC(=O)O)NC(=O)CCCCCCCCCCCCCCCCC(=O)O)[C@@H](C)O)C(=O)NCC(=O)N[C@@H](CCCNC(=N)N)C(=O)N[C@@H](CC(C)C)C(=O)N[C@@H](CO)C(=O)N[C@@H](C)C(=O)N[C@@H](CCC(=O)O)C(=O)N[C@@H](CC(C)C)C(=O)N[C@@H](Cc1c[nH]cn1)C(=O)N[C@@H](CCC(=O)O)C(=O)N[C@@H](CC(C)C)C(=O)N[C@@H](C)C(=O)N[C@H](C(=O)N[C@@H](CC(C)C)C(=O)N1CCC[C@H]1C(=O)N[C@@H](CCCNC(=N)N)C(=O)N[C@H](C(=O)N[C@@H](CCC(=O)O)C(=O)N[C@H](C(=O)NCC(=O)N1CCC[C@H]1C(=O)N[C@@H](CCC(=O)O)C(=O)N[C@@H](CO)C(=O)N1CCC[C@H]1C(N)=O)[C@@H](C)O)[C@@H](C)O)[C@@H](C)O
notes: also called Ex. #2
B6: [N-terminal(C20 diacid-gGlu), 23Y, 30S, 31G]mimylin (peptide)
peptide: {C20 diacid-γGlu}-EASELSTAALGRLSAELHELATYPRTETGSGSP-NH2
SMILES: CC(C)C[C@H](NC(=O)[C@H](C)NC(=O)[C@H](C)NC(=O)[C@@H](NC(=O)[C@H](CO)NC(=O)[C@H](CC(C)C)NC(=O)[C@H](CCC(=O)O)NC(=O)[C@H](CO)NC(=O)[C@H](C)NC(=O)[C@H](CCC(=O)O)NC(=O)CC[C@H](NC(=O)CCCCCCCCCCCCCCCCCCC(=O)O)C(=O)O)[C@@H](C)O)C(=O)NCC(=O)N[C@@H](CCCNC(=N)N)C(=O)N[C@@H](CC(C)C)C(=O)N[C@@H](CO)C(=O)N[C@@H](C)C(=O)N[C@@H](CCC(=O)O)C(=O)N[C@@H](CC(C)C)C(=O)N[C@@H](Cc1c[nH]cn1)C(=O)N[C@@H](CCC(=O)O)C(=O)N[C@@H](CC(C)C)C(=O)N[C@@H](C)C(=O)N[C@H](C(=O)N[C@@H](Cc1ccc(O)cc1)C(=O)N1CCC[C@H]1C(=O)N[C@@H](CCCNC(=N)N)C(=O)N[C@H](C(=O)N[C@@H](CCC(=O)O)C(=O)N[C@H](C(=O)NCC(=O)N[C@@H](CO)C(=O)NCC(=O)N[C@@H](CO)C(=O)N1CCC[C@H]1C(N)=O)[C@@H](C)O)[C@@H](C)O)[C@@H](C)O
notes: also called Ex. #34

Numbered stars: 1 amine (or outer) side, 2 acyl side, 3 side chain; on linkers, the order of the positions; unused ones are H or OH. * marks the point of attachment. C20 diacid = O=C(O)CCCCCCCCCCCCCCCCCCC(=O)*; C18 diacid = O=C(O)CCCCCCCCCCCCCCCCC(=O)*; C16 diacid = O=C(O)CCCCCCCCCCCCCCC(=O)*; γGlu = O=C(O)[C@H](CCC(=O)[*:2])N[*:1]; C14 diacid = O=C(O)CCCCCCCCCCCCC(=O)*; C12 diacid = O=C(O)CCCCCCCCCCC(=O)*; Palmitoyl = CCCCCCCCCCCCCCCC(=O)*; AEEA = NCCOCCOCC(=O)O

This assay concerns the target T1, human calcitonin receptor. Briefly: whole-cell competition vs 125I-human calcitonin (Assay VIIa). In a few lines: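 BHK tk'ts 13 cells stably co-expressing human calcitonin receptor and a CRE-luciferase reporter, seeded overnight at 37 °C. Bound tracer counted by scintillation after cold HBSS washes and NaOH/SDS lysis; IC₅₀ from one-site competition fit taken as receptor affinity.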
With {C12 diacid}-EASELSTAALGRLSAELHELATLPRTETGPESP-NH2 (also called Ex. #6) [[N-terminal(C12 diacid)]mimylin], the IC50 turned out to be 5.68 nM.

{C14 diacid}-EASELSTAALGRLSAELHELATLPRTETGPESP-NH2 (also called Ex. #4) [[N-terminal(C14 diacid)]mimylin]: the IC50 was 1.05 nM.

{C20 diacid-γGlu-AEEA-AEEA-AEEA}-ASELSTAALGRLSAELHELATLPRTETGSGSP-NH2 (also called Ex. #43) [[N-terminal(C20 diacid-gGlu-3xOEG), des1, 30S, 31G]mimylin]: the IC50 was found to be 0.352 nM.

With {C14 diacid-γGlu}-ASELSTAALGRLSAELHELATLPRTETGPESP-NH2 (also called Ex. #19) [[N-terminal(C14 diacid-gGlu), des1]mimylin], the half-inhibitory concentration (IC50) worked out at 0.515 nM.

Consider B1, for which the IC50 is 1.24 nM.

Take {C18 diacid-γGlu}-ASELTTAVLGRLEAELHELTTLPRTETGTGTP-NH2 [[N-terminal(C18 diacid-gGlu), des1, 6T, 9V, 14E, 21T, 30T, 31G, 32T]mimylin]: the IC50 was determined as 9.15 nM.

Take {C18 diacid-γGlu}-ASEVSTAVLGRLSAELHELATLPRTETGSGSP-NH2 (also called Ex. #86) [[N-terminal(C18 diacid-gGlu), des1, 5V, 9V, 30S, 31G]mimylin]: the IC50 amounted to 0.943 nM.

B2: the IC50 was determined as 0.59 nM.

Consider B3, for which the IC50 was determined as 0.605 nM.

Turning to B4, the IC50 was determined as 0.767 nM.

For the molecule {C16 diacid}-EASELSTAALGRLSAELHELATLPRTETGPESP-NH2 (also called Ex. #3) [[N-terminal(C16 diacid)]mimylin], the IC50 was found to be 0.413 nM.

For the molecule B5, the IC50 came out at 0.798 nM.

Take B6: the IC50 is 2.27 nM.

Turning to {C14 diacid-γGlu-γGlu-AEEA-AEEA-AEEA-AEEA}-EASELSTAALGRLSAELHELATLPRTETGPESP-NH2 (also called Ex. #5) [[N-terminal(C14 diacid-2xgGlu-4xOEG)]mimylin], the IC50 is 6.51 nM.

Regarding Palmitoyl-EASELSTAALGRLSAELHELATLPRTETGPESP-NH2 (also called Ex. #7) [[N-terminal(C16)]mimylin], the IC50 amounted to 0.834 nM.
